The values that follow come from the Immune Epitope Database (IEDB).

Some targets named below: HLA-A*11:01; HLA-A*33:01; HLA-A*68:01; HLA-A*03:01; HLA-A*31:01.
Common to all, as to assay: IEDB peptide-MHC binding, purified MHC/competitive/radioactivity; filed as Kd, often an IC50 or EC50 that approximates it; ≥ and ≤ were set here for values at or beyond the usual limits of such assays
Where [1] appears, read: source organism: Vaccinia virus WR.
Setting [2] is: source organism: Dengue virus 2 Jamaica/1409/1983.
The mark [3] stands for this setting: source organism: SARS coronavirus Tor2.
[4] abbreviates: source organism: Mammarenavirus brazilense.
Setting [5] is: source organism: Mammarenavirus juninense.
Setting [6] is: source organism: Dengue virus 4 Philippines/H241/1956.
The mark [7] stands for this setting: source organism: Dengue virus 3 Martinique/1243/1999.
Where [8] appears, read: source organism: Dengue virus 1 Brazil/97-11/1997.
Where [9] appears, read: source organism: Dengue virus 2 Peru/IQT2913/1996.
The mark [10] stands for this setting: source organism: Dengue virus 3 Sri Lanka/1266/2000.

On to LTPIFSDLLK, for which the Kd with HLA-A*11:01 (setting [1]) was 0.00237 µM; with HLA-A*33:01 (setting [1]) it was 3.9 µM; in the assay with HLA-A*68:01 (setting [1]), 0.0172 µM; in the assay with HLA-A*03:01 (setting [1]), 0.0241 µM; in the assay with HLA-A*31:01 (setting [1]) it was 4.12 µM.

For the sequence ALRGLPIRY, the Kd in the assay with HLA-A*03:01 (setting [2]) stood at 0.0528 µM.

As for ESLLKETIQK, the Kd turned out to be 0.00974 µM with HLA-A*11:01 (setting [1]); 14.8 µM with HLA-A*33:01 (setting [1]); 0.332 µM with HLA-A*68:01 (setting [1]); 0.0267 µM in the assay with HLA-A*03:01 (setting [1]); 13.2 µM with HLA-A*31:01 (setting [1]).

Consider LLACTDPSER, for which the Kd is at least 37 µM with HLA-A*11:01 (setting [1]); 2.42 µM with HLA-A*33:01 (setting [1]); 0.856 µM with HLA-A*68:01 (setting [1]); at least 70.1 µM with HLA-A*03:01 (setting [1]); 1.26 µM in the assay with HLA-A*31:01 (setting [1]).

On to TTTIKPVSYK, for which the Kd with HLA-A*11:01 (setting [3]) turned out to be 0.0204 µM; with HLA-A*33:01 (setting [3]), 10.6 µM; with HLA-A*68:01 (setting [3]) it was 0.0991 µM; with HLA-A*03:01 (setting [3]), 0.0116 µM; in the assay with HLA-A*31:01 (setting [3]), 1.46 µM.

Consider LLPSTDVNK, for which the Kd in the assay with HLA-A*11:01 (setting [1]) is 5.54 µM; in the assay with HLA-A*33:01 (setting [1]) it was at least 77.7 µM; with HLA-A*68:01 (setting [1]) it was 6.95 µM; with HLA-A*03:01 (setting [1]), 5.01 µM; in the assay with HLA-A*31:01 (setting [1]), 17.3 µM.

For the sequence FNMLKRERNR, the Kd with HLA-A*33:01 (setting [2]) is 0.0537 µM.

Turning to GTGLWTHDK, the Kd in the assay with HLA-A*11:01 (setting [1]) is 0.000361 µM; in the assay with HLA-A*33:01 (setting [1]) it was at least 65.6 µM; with HLA-A*68:01 (setting [1]) it was 0.156 µM; with HLA-A*03:01 (setting [1]), 0.0247 µM; with HLA-A*31:01 (setting [1]), 0.805 µM.

For the sequence IMNLEMIDER, the Kd was 19.2 µM with HLA-A*11:01 (setting [1]); 1.56 µM with HLA-A*33:01 (setting [1]); 3.61 µM with HLA-A*68:01 (setting [1]); at least 70.1 µM with HLA-A*03:01 (setting [1]); 1.28 µM with HLA-A*31:01 (setting [1]).

As for VLHDIGNPK, the Kd with HLA-A*11:01 (setting [3]) came out at 0.0343 µM; with HLA-A*33:01 (setting [3]), 7.77 µM; with HLA-A*68:01 (setting [3]) it was 6.52 µM; in the assay with HLA-A*03:01 (setting [3]), 0.0215 µM; with HLA-A*31:01 (setting [3]), 1.96 µM.

On to QAEPSLYGRH, for which the Kd was at least 69.7 µM with HLA-A*11:01 (setting [4]); at least 70 µM with HLA-A*33:01 (setting [4]); at least 70.1 µM with HLA-A*68:01 (setting [4]); at least 70 µM with HLA-A*03:01 (setting [4]); at least 20 µM with HLA-A*31:01 (setting [4]).

For IMFEQYFIY, the Kd with HLA-A*11:01 (setting [1]) was at least 77.9 µM; with HLA-A*33:01 (setting [1]) it was 3.26 µM; with HLA-A*68:01 (setting [1]) it was 0.205 µM; in the assay with HLA-A*03:01 (setting [1]) it was 0.00367 µM; with HLA-A*31:01 (setting [1]) it was 0.229 µM.

As to AQALNTLVK, the Kd in the assay with HLA-A*11:01 (setting [3]) is 0.0159 µM; in the assay with HLA-A*33:01 (setting [3]), at least 28.7 µM; with HLA-A*68:01 (setting [3]), 1.63 µM; with HLA-A*03:01 (setting [3]) it was 0.247 µM; with HLA-A*31:01 (setting [3]), 3.64 µM.

For EKYGHLCKYH, the Kd with HLA-A*11:01 (setting [5]) was at least 69.7 µM; with HLA-A*33:01 (setting [5]), at least 70 µM; with HLA-A*68:01 (setting [5]), at least 70.1 µM; with HLA-A*03:01 (setting [5]) it was at least 70 µM; in the assay with HLA-A*31:01 (setting [5]), at least 70 µM.

On to DSVCACGLFK, for which the Kd with HLA-A*11:01 (source organism: Mammarenavirus whitewaterense) worked out at 0.133 µM.

Take RVSTPQGLVK: the Kd with HLA-A*11:01 (setting [6]) turned out to be 0.0542 µM; with HLA-A*03:01 (setting [6]), 0.00593 µM.

Take NSVANRSKQK: the Kd with HLA-A*11:01 (setting [1]) is 0.525 µM; with HLA-A*33:01 (setting [1]), at least 70 µM; with HLA-A*68:01 (setting [1]), 0.568 µM; in the assay with HLA-A*03:01 (setting [1]) it was 0.322 µM; in the assay with HLA-A*31:01 (setting [1]) it was 17 µM.

As for RMLNILNGR, the dissociation constant (Kd) with HLA-A*31:01 (setting [6]) was determined as 0.00116 µM.

With DFKEFASGR, the Kd with HLA-A*33:01 (setting [6]) is 0.00223 µM.

As for EYRLKGESR, the Kd with HLA-A*33:01 (setting [7]) stood at 0.0186 µM.

In the case of VIDPRRCLK, the Kd with HLA-A*11:01 (setting [8]) is 1.5 µM; in the assay with HLA-A*03:01 (setting [8]) it was 0.0493 µM.

Consider IGKMFEATAR, for which the Kd with HLA-A*33:01 (setting [8]) worked out at 0.637 µM.

For the sequence NYLDYMTSMK, the Kd in the assay with HLA-A*33:01 (setting [8]) came to 0.173 µM.

Turning to ILKRWGTIKK, the Kd with HLA-A*03:01 (setting [2]) amounted to 0.0474 µM.

For the sequence FTDPSSVAAR, in the assay with HLA-A*68:01 (setting [6]), the Kd came out at 0.0677 µM.

For VTNHMEGEHK, the equilibrium dissociation constant (Kd) in the assay with HLA-A*11:01 (setting [2]) turned out to be 0.508 µM.

Turning to AMLFLISGK, the Kd is 0.211 µM in the assay with HLA-A*11:01 (setting [7]) and 0.185 µM in the assay with HLA-A*03:01 (setting [7]).

LLALNDMGK: the Kd in the assay with HLA-A*03:01 (setting [7]) came out at 0.294 µM.

As for VMAFHLTTR, the Kd worked out at 0.0517 µM with HLA-A*03:01 (setting [9]) and 0.00739 µM in the assay with HLA-A*31:01 (setting [9]).

Take YLALIATFK: the figures for the Kd in the assay with HLA-A*68:01 (setting [7]) and with HLA-A*03:01 (setting [7]) were 0.0318 µM and 0.0047 µM, respectively.

Turning to TSEVHWNYK, the Kd with HLA-A*11:01 (setting [6]) was found to be 0.0849 µM.

With LFMALVAFLR, the figures for the Kd with HLA-A*33:01 (setting [2]), with HLA-A*68:01 (setting [2]) and in the assay with HLA-A*31:01 (setting [2]) were 0.0932 µM, 0.192 µM and 0.0955 µM, respectively.

MIEEVMRSR: the equilibrium dissociation constant (Kd) with HLA-A*33:01 (setting [8]) was 0.0908 µM.

LFLEEMLRTR: the dissociation constant (Kd) with HLA-A*33:01 (setting [2]) is 0.685 µM; with HLA-A*31:01 (setting [2]), 0.732 µM.

For DFTLFIKTGH, the Kd was at least 58.7 µM with HLA-A*11:01 (setting [4]), 0.131 µM with HLA-A*33:01 (setting [4]), 2.48 µM with HLA-A*68:01 (setting [4]) and 4.54 µM in the assay with HLA-A*31:01 (setting [4]).

Take LMKSLGGGR: the Kd with HLA-A*31:01 (setting [8]) was at least 57.6 µM.

Turning to AANEMGLIEK, the Kd with HLA-A*11:01 (setting [6]) is 0.281 µM.

As to MLVTPSMAMR, the Kd with HLA-A*33:01 (setting [8]) is 0.0346 µM; in the assay with HLA-A*68:01 (setting [8]), 0.032 µM; with HLA-A*31:01 (setting [8]) it was at least 51.7 µM.

Turning to TIFTLTVAWR, the Kd with HLA-A*33:01 (setting [10]) is 0.391 µM; with HLA-A*68:01 (setting [10]), 0.0873 µM; with HLA-A*31:01 (setting [10]), 0.395 µM.

Take MVSRLLLNR: the Kd with HLA-A*11:01 (setting [7]) worked out at 0.0499 µM; with HLA-A*33:01 (setting [7]) it was 0.00831 µM; with HLA-A*68:01 (setting [7]), 0.013 µM; in the assay with HLA-A*31:01 (setting [7]) it was 0.00481 µM.
